According to US20120259096A1:
Positions count from the first letter of the chain named.

B1: CA167_00983 (antibody, from another filing, rabbit IgG1, V domains shown)
VH: QSVEESGGRLVTPGTPLTLTCTVSGFSLSNYAMSWVRQAPGKGLEWIGIIGKSGSTAYASWAKGRFTISRTSTTVDLEITSPTTEDTATYFCVRFVLLWGPGTLVTVS
VL: AQVLTQTASPVSAAVGGTVTINCQSSQSVYKNNDLAWYQQKPGQPPKLLIYYASTLASGVSSRFKGSGSGTEFTLTISDAQCDDAATYYCLGSYDCSSADCNAFGGGTKVVVK
B2: CA167_01080 (antibody, from another filing, rabbit IgG1, V domains shown)
VH: QSLEESGGRLVTPETPLTLTCTASGIDLSKWPMTWVRQAPGKGLEWIGIIGRSGSTNYASWAKGRFTISKTSTTVDLKMTSPTTEDTATYFCARGGSYYDLWGQGTLVTVS
VL: B1 VL with G17N, N22T, Y30W, A36S, P42L, G66A, E72Q, A80V, A86G, L91V

Assays:
[1] = biological target: human Nav1.7 channel (type IX voltage-gated sodium channel alpha subunit) (human) (UniProt Q15858); test: cell-based or functional assay
[2] = biological target: recombinant rat Nav1.7 channels expressed in HEK cells (rat) (UniProt O08562); test: cell-based or functional assay
Sequence of recombinant rat Nav1.7 channels expressed in HEK cells (rat) (O08562 whole entry): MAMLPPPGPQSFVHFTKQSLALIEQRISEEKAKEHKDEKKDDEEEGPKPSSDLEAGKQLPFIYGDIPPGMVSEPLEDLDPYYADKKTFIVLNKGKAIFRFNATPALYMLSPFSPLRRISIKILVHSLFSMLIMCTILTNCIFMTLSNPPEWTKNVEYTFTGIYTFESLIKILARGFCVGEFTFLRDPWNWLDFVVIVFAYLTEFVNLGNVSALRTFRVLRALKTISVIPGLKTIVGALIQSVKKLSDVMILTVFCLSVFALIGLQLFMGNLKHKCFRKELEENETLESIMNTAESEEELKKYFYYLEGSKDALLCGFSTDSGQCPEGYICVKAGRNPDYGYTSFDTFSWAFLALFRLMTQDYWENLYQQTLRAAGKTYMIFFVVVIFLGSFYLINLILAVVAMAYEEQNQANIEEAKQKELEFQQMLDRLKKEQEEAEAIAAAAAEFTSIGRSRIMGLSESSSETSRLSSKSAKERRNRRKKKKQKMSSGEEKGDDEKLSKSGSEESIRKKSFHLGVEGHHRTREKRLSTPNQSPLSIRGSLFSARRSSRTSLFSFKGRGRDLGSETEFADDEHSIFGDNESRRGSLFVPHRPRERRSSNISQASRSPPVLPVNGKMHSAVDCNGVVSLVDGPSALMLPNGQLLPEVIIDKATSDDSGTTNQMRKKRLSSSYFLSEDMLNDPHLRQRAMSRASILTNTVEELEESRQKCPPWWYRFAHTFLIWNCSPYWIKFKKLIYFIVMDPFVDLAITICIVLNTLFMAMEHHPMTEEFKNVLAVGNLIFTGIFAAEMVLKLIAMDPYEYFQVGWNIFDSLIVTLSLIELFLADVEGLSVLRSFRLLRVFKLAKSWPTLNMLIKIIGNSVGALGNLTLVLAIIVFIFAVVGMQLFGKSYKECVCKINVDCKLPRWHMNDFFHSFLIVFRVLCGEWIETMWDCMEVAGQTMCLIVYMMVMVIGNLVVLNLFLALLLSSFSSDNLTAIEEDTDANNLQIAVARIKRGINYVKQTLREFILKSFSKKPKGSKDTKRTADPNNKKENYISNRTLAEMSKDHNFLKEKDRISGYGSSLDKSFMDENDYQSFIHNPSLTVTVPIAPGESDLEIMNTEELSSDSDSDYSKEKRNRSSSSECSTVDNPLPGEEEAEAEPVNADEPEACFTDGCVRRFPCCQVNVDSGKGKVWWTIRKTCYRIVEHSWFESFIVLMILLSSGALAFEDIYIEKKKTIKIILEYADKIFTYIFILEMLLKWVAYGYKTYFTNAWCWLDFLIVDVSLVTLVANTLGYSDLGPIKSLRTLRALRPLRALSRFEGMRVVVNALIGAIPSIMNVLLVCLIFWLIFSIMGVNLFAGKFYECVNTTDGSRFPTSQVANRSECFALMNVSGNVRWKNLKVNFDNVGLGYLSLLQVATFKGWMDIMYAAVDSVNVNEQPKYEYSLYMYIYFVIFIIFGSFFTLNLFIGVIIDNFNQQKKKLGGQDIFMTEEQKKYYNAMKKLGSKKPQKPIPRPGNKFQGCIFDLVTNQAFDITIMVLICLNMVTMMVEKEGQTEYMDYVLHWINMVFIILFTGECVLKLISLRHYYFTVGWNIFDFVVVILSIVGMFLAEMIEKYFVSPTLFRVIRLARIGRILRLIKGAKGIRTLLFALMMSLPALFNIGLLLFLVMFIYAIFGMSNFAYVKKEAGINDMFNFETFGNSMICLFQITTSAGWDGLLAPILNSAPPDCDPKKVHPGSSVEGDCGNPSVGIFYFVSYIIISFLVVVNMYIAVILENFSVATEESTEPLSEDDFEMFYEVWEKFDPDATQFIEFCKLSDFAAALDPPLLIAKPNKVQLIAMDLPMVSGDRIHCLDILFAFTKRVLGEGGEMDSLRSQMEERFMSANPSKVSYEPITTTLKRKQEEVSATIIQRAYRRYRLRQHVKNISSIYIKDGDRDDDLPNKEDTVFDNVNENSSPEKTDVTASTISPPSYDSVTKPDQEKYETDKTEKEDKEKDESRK

Binder | Nav1.7 inhibition (%), automated patch clamp on HEK cells, antibody at 25 µg/ml [1] | inhibition of Nav1.7 currents, automated patch clamp on HEK cells, antibody at 25 µg/ml [2]
B1 | 41% | 
B2 | 46% | 26%
